Experimental data as given in IntAct's records for PubMed 12655004.

B1: U3 small nucleolar ribonucleoprotein protein IMP4 (Homo sapiens), Q96G21 (parent)
chain: MLRREARLRREYLYRKAREEAQRSAQERKERLRRALEENRLIPTELRREALALQGSLEFDDAGGEGVTSHVDDEYRWAGVEDPKVMITTSRDPSSRLKMFAKELKLVFPGAQRMNRGRHEVGALVRACKANGVTDLLVVHEHRGTPVGLIVSHLPFGPTAYFTLCNVVMRHDIPDLGTMSEAKPHLITHGFSSRLGKRVSDILRYLFPVPKDDSHRVITFANQDDYISFRHHVYKKTDHRNVELTEVGPRFELKLYMIRLGTLEQEATADVEWRWHPYTNTARKRVFLSTE
partner: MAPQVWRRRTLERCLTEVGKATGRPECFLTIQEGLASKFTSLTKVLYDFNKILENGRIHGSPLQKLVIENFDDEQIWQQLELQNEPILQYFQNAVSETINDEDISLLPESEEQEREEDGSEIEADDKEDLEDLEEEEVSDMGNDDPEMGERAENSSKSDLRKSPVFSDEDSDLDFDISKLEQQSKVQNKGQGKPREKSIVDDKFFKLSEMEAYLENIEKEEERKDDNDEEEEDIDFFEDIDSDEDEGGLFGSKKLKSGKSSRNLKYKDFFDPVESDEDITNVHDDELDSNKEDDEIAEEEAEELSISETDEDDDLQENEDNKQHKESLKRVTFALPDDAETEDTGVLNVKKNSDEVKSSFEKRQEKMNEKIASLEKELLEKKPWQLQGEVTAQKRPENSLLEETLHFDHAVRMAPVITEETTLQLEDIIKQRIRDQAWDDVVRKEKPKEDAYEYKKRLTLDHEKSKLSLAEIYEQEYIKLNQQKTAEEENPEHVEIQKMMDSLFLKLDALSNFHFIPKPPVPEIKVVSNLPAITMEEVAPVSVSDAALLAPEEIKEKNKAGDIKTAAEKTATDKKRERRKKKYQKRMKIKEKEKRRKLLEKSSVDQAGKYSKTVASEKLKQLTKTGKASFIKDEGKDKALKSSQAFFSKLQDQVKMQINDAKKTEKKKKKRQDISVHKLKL

Variants of: B1
Settings: with mpp10_human MPHOSPH10, O00566
With T159A;F162A the “effect of a mutation on the interaction” value was “disrupting interaction strength”. In the case of E246A;R250A, the “effect of a mutation on the interaction” value is reported as “disrupting interaction strength”.
